Consider 1 molecule from patent US20190077860A1 (EISAI R AND D MANAGEMENT, published 2019).

What all share (assay): ELISA
(An ELISA detects its analyte on a solid surface through an enzyme-linked reagent.)

The target in assay [1] is T1, human EphB2 extracellular region-SEAP-His protein (human, UniProt P29323 19-543).
T1 construct: extracellular domain; also called hEphB2-SEAP-His
T1 sequence (looked up): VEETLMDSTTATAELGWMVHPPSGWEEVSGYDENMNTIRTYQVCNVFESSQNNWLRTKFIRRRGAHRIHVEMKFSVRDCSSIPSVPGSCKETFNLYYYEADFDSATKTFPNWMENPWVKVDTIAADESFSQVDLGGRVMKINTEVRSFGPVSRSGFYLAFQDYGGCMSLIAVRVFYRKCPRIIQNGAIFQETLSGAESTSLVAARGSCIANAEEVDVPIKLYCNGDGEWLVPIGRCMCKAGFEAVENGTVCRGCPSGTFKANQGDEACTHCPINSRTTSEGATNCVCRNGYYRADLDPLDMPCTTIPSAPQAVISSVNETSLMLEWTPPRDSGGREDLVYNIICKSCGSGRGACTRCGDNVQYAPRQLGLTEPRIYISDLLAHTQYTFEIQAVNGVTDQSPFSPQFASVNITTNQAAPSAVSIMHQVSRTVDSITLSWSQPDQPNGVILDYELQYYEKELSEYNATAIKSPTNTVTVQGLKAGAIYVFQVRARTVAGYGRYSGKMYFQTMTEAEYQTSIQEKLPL

The target in assay [2] is T2, human EphA10 extracellular region-SEAP-His protein (human, UniProt Q5JZY3 34-565).
T2 construct: extracellular domain; also called hEphA10-SEAP-His
T2 sequence (looked up): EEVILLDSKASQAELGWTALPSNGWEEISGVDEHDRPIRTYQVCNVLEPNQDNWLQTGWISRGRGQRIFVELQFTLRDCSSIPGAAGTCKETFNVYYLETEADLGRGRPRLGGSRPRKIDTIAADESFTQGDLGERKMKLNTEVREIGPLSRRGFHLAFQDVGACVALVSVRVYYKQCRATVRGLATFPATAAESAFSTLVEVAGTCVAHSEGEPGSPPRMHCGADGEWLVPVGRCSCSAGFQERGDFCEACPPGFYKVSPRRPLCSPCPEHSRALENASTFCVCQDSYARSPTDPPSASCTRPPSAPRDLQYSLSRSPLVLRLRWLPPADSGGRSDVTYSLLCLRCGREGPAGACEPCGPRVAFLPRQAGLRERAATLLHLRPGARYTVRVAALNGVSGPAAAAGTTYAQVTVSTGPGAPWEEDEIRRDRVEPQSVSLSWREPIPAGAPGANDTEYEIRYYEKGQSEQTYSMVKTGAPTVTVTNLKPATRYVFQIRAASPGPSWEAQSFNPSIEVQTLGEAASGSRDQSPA

In assay [3] the target is T3, human EphA2 extracellular region-SEAP-His protein (human, UniProt P29317 24-537).
T3 construct: extracellular domain; also called hEphA2-SEAP-His

For assay [4], the target named is T4, human EphA8 extracellular region-SEAP-His protein (human, UniProt P29322 28-542).
T4 construct: extracellular domain; also called hEphA8-SEAP-His
T4 sequence (looked up): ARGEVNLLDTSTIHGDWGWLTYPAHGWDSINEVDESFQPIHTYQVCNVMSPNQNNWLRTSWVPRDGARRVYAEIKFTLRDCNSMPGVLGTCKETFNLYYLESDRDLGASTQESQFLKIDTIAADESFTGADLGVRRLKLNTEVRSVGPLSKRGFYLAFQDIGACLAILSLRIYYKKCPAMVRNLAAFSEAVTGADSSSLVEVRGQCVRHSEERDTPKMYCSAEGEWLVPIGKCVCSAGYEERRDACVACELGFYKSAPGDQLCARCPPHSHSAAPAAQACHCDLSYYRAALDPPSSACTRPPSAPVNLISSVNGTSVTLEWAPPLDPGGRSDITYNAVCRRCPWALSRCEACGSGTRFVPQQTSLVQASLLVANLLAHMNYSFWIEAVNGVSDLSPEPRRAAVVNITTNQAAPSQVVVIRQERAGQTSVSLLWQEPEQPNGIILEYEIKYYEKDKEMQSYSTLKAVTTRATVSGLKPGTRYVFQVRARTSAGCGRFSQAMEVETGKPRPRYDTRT

Assay [5] addresses T5, human EphA6 extracellular region-SEAP-His protein (human, UniProt Q9UF33 23-550).
T5 construct: extracellular domain; also called hEphA6-SEAP-His
T5 sequence (looked up): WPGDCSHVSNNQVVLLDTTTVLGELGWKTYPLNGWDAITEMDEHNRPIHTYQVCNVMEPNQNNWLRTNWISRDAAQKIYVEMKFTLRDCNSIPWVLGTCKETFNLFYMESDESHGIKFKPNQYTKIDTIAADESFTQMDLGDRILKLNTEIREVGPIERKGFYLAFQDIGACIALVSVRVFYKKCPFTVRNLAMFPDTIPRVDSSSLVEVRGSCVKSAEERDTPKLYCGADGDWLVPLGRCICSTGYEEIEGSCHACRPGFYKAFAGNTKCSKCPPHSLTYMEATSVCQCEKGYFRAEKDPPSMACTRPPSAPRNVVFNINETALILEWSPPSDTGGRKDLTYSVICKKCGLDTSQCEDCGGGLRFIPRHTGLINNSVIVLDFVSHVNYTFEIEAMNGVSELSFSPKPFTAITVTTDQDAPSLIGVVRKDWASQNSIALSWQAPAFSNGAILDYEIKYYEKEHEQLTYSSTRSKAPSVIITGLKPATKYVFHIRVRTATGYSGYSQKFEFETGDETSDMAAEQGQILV

T3 sequence (P29317 24-537): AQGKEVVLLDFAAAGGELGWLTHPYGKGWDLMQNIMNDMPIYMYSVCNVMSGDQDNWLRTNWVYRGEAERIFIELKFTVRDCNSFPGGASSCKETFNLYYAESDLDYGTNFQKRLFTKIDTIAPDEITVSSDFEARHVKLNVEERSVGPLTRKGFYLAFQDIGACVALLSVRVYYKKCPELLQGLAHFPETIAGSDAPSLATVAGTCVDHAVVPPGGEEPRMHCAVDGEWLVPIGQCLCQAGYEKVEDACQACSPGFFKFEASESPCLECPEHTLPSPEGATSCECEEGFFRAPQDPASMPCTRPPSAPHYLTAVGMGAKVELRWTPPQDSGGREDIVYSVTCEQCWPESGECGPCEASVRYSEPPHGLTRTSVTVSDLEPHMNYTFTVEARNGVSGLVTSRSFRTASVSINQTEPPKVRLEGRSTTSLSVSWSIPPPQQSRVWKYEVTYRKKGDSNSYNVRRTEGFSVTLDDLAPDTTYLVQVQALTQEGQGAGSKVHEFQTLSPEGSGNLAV

B1: humanized antibody No. 96 (antibody, human IgG1, kappa)
heavy: QVQLVQSGSELKKPGASVKVSCKASGYTFTDYSMHWVRQAPGQGLKWMGWINTETGEPTYADDFKGRFVFSLDTSVSTAYLQISSLKAEDTAVYYCARIPLYYYGSRYWYFDVWGQGTTVTVSSASTKGPSVFPLAPSSKSTSGGTAALGCLVKDYFPEPVTVSWNSGALTSGVHTFPAVLQSSGLYSLSSVVTVPSSSLGTQTYICNVNHKPSNTKVDKRVEPKSCDKTHTCPPCPAPPAAAPSVFLFPPKPKDTLMISRTPEVTCVVVDVSHEDPEVQFNWYVDGVEVHNAKTKPREEQFNSTFRVVSVLTVVHQDWLNGKEYKCKVSNKGLPAPIEKTISKTKGQPREPQVYTLPPSREEMTKNQVSLTCLVKGFYPSDIAVEWESNGQPENNYKTTPPMLDSDGSFFLYSKLTVDKSRWQQGNVFSCSVMHEALHNHYTQKSLSLSPG
light: EIVMTQSPATLSVSPGERATLSCRASENIYRNLAWYQQKPGQSPRLLIYAATNLADGIPARFSGSGSGTEYTLTISSLQSEDFAVYYCQHFWGTPWTFGQGTKVEIKRTVAAPSVFIFPPSDEQLKSGTASVVCLLNNFYPREAKVQWKVDNALQSGNSQESVTEQDSKDSTYSLSSTLTLSKADYEKHKVYACEVTHQGLSSPVTKSFNRGEC
notes: human Ig kappa; also called L2-4/HK2
Regarding B1, the “A450 as % of hEphA4-SEAP-His” value in assay [1] came out at 5.5%; in assay [2], 5.3%; in assay [3], 5.3%; in assay [4], 5.4%; in assay [5] it was 9.8%.
